# Assay results published in paper PMC5372792.
# Key:
# [1] = biological target: HLA-C01:02 (C1) on 721.221 cells (human | human (endogenous in 721.221))
# [2] = biological target: HLA-C07:01 (C1) on 721.221 cells (human | human (endogenous in 721.221))
substance,measurement,setting,value
"KIR2DL2 reporter (2DL2–2DS1TM chimeric molecule, KIR2DL2*001) (receptor)",GFP-positive NFAT-GFP reporter cells after overnight coculture with 721.221 transfectants (E:T 1:3) (% GFP-positive cells),[1],< 5
same,GFP-positive NFAT-GFP reporter cells after overnight coculture with 721.221 transfectants (E:T 1:3),[2],> 20 % GFP cells
